Data from PMC7919490, “Effect of C-terminus Conjugation via Different Conjugation Chemistries on In Vivo Activity of Albumin-Conjugated Recombinant GLP-1” (Pharmaceutics, 2021).
Values belong to the compound of their own block, whether it stands above or below them.

Experiments:
GLP-1 receptor (GLP-1R) = GLP-1 receptor (GLP-1R) (UniProt P43220)
[1] = cited from earlier work
Source text: Although GLP-1 exerts significant effects in an individual’s body, its short half-life is a significant drawback. Many studies have been conducted in effort to overcome the hurdles of GLP-1 and to develop it as a medication. Traditional efforts to increase the size of small therapeutic proteins have included polyethylene glycol (PEG) conjugation. […] The in vitro activity of GLP1_8A37C-HSA was greater than that of GLP1_8G37C-HSA, probably due to the alanine to glycine change at position 8 (A8G) affecting the interactions with GLP-1R. […] Despite the low EC50 value of GLP1_ ...

GLP-1R = target: T1, GLP-1R (Homo sapiens, UniProt P43220); test: In vitro activity assay: cAMP production by GLP-1R-overexpressing HEK-293 cells; format: cell-based; details: HEK293 cells transfected with pcDNA3.1-GLP-1R_tango; 15 min exposure; cAMP Parameter Assay Kit; normalized to cAMP with 1 μM GLP1_C; dose-response fit in OriginPro; n = 3/group
T1 construct: Tango fusion cassette (named only as '_tango' in the plasmid name); host or cells: HEK293 (ATCC), transiently transfected
Protocol: The plasmid pcDNA3.1-GLP-1R_tango (Addgene, Cambridge, MA, USA) and transfection reagent were then mixed in serum-free medium for 20 min, in accordance with the manufacturer’s recommendation. […] The levels of cAMP in the cell lysate were measured using the cAMP Parameter Assay Kit following the manufacturer’s protocol. […] The half maximal effective concentrations (EC50) of each curve were estimated from a dose–response curve using OriginPro software. Absorbance at 450 nm was monitored using a Varioskan Lux microplate reader (Thermo Fisher Scientific).

T1 sequence (P43220 24-463): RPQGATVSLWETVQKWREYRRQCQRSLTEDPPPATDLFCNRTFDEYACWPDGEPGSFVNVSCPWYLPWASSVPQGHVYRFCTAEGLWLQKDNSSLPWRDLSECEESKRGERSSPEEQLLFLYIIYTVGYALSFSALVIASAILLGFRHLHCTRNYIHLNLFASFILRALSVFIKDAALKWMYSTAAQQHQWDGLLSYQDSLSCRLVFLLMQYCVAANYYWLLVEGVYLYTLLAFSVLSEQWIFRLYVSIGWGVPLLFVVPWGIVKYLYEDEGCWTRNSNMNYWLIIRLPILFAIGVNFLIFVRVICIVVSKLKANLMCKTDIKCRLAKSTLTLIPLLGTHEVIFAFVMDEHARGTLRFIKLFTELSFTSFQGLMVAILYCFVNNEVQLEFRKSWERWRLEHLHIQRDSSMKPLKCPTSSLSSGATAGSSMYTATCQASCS
Sequence of GLP-1 receptor (GLP-1R) (P43220 24-463): as above

EC50 of cAMP production by GLP-1R-overexpressing HEK-293 cells (GLP-1 receptor (GLP-1R)): 1.34 µM
Compound: GLP1_8G37C-HSA (from UniProt P02768 25-609)

Compound: Glucagon-like peptide-1 [GLP-1]
half-life in the body ([1]; reported, reference not given): 2 to 3 min

EC50 (GLP-1R): 0.185 µM
Compound: GLP1_8A37C-HSA: GLP1-HSA conjugate with alanine at position 8 and albumin at its C-terminus (HAEGTFTSDVSSYLEGQAAKEFIAWLVRGRC; not fully specified; GLP-1(7-37), Ala8 kept, G37C; Cys37 is joined through TET-PEG4-maleimide / TCO-maleimide (IEDDA) to Cys34 of human serum albumin (carrier, UniProt P02768 25-609, not included))

Compound: CC[C@H](C)[C@H](NC(=O)[C@H](Cc1ccccc1)NC(=O)[C@H](CCC(=O)O)NC(=O)[C@H](CCCCN)NC(=O)[C@H](C)NC(=O)[C@H](C)NC(=O)[C@H](CCC(N)=O)NC(=O)CNC(=O)[C@H](CCC(=O)O)NC(=O)[C@H](CC(C)C)NC(=O)[C@H](Cc1ccc(O)cc1)NC(=O)[C@H](CO)NC(=O)[C@H](CO)NC(=O)[C@@H](NC(=O)[C@H](CC(=O)O)NC(=O)[C@H](CO)NC(=O)[C@@H](NC(=O)[C@H](Cc1ccccc1)NC(=O)[C@@H](NC(=O)CNC(=O)[C@H](CCC(=O)O)NC(=O)[C@H](C)NC(=O)[C@@H](N)Cc1c[nH]cn1)[C@@H](C)O)[C@@H](C)O)C(C)C)C(=O)N[C@@H](C)C(=O)N[C@@H](Cc1c[nH]c2ccccc12)C(=O)N[C@@H](CC(C)C)C(=O)N[C@H](C(=O)N[C@@H](CCCNC(=N)N)C(=O)NCC(=O)N[C@@H](CCCNC(=N)N)C(=O)NCC(=O)O)C(C)C [GLP1_C]
plasma half-life ([1]; in animal): only a few minutes in animal

EC50 (GLP-1R): 1.11 µM
Compound: GLP1_8G16AzF-HSA: GLP1-HSA conjugate generated by HSA conjugation to position 16 of GLP-1 via SPAAC (HGEGTFTSDFSSYLEGQAAKEFIAWLVRGRG; not fully specified; GLP-1(7-37) A8G; Residue 16 (entry position 10) is p-azido-L-phenylalanine, written as parent Phe, joined by SPAAC through DBCO-PEG4-maleimide to Cys34 of human serum albumin (carrier, UniProt P02768)

EC50 of cAMP production by GLP-1R-overexpressing HEK-293 cells (GLP-1 receptor (GLP-1R)): 0.185 µM
Compound: GLP1_8A37C-HSA (from UniProt P02768 25-609)

EC50 (GLP-1R): 1.34 µM
Compound: GLP1_8G37C-HSA: GLP1-HSA conjugate, HSA conjugated to GLP1_8G37C via Michael addition and IEDDA (HGEGTFTSDVSSYLEGQAAKEFIAWLVRGRC; not fully specified; GLP-1(7-37) A8G, G37C; Cys37 is joined through TET-PEG4-maleimide / TCO-maleimide (IEDDA) to Cys34 of human serum albumin (carrier, UniProt P02768 25-609, not included); K34R is inferred from the expe)
